test system: Escherichia coli TOP10; assay: shrunken log2 fold change of peptide-encoding DNA abundance (4.5 h post-induction vs induction); higher = less antimicrobial activity (less host growth inhibition); details: time post-induction: 4.5 h; library: site-saturation at positions 5, 18, 19, 20
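Further: peptides expressed intracellularly from a pBAD plasmid library in pooled LB shake-flask culture, induced with 0.3% L-arabinose, DNA abundance read by NGS, three biological replicates, DESeq2 with apeglm shrinkage.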

| Sequence | shrunken log2 fold change |
| --- | --- |
| RRIRARPPRLPRPRPRPWNTPRP | -0.427 |
| RRIRARPPRLPRPRPRPGCAPRP | 0.947 |
| RRIRGRPPRLPRPRPRPQMYPRP | 0.0854 |
| RRIRKRPPRLPRPRPRPMDTPRP | 0.336 |
| RRIRLRPPRLPRPRPRPRVYPRP | 0.224 |
| RRIRPRPPRLPRPRPRPCFDPRP | 0.0273 |
| RRIRYRPPRLPRPRPRPTGWPRP | 0.088 |
| RRIRGRPPRLPRPRPRPHLSPRP | 0.283 |
| RRIRIRPPRLPRPRPRPVKTPRP | -0.0343 |
| RRIRQRPPRLPRPRPRPIIQPRP | -0.248 |
| RRIRQRPPRLPRPRPRPGPYPRP | -0.0528 |
| RRIRTRPPRLPRPRPRPSYIPRP | -0.511 |
| RRIRWRPPRLPRPRPRPTANPRP | 0.399 |
| RRIRMRPPRLPRPRPRPYFPPRP | -0.213 |
| RRIRERPPRLPRPRPRPGEYPRP | -0.267 |
| RRIRYRPPRLPRPRPRPTMGPRP | 0.0568 |
| RRIRDRPPRLPRPRPRPIAAPRP | 0.476 |
| RRIRDRPPRLPRPRPRPDRPPRP | -0.251 |
| RRIRARPPRLPRPRPRPSTCPRP | 0.0421 |
| RRIRVRPPRLPRPRPRPYQAPRP | -0.293 |
| RRIRNRPPRLPRPRPRPLPKPRP | 0.402 |
| RRIRVRPPRLPRPRPRPDNGPRP | 0.0214 |
| RRIRIRPPRLPRPRPRPYACPRP | -0.0484 |
| RRIRQRPPRLPRPRPRPQRWPRP | 0.178 |
| RRIRYRPPRLPRPRPRPKRGPRP | 0.00607 |

| Sequence | shrunken log2 fold change |
| --- | --- |
| RRIRARPPRLPRPRPRPMENPRP | 0.423 |
| RRIRPRPPRLPRPRPRPQTLPRP | 0.000929 |
| RRIRDRPPRLPRPRPRPNWCPRP | 0.0171 |
| RRIRCRPPRLPRPRPRPTYEPRP | -0.717 |
| RRIRNRPPRLPRPRPRPKGEPRP | -0.00804 |
| RRIRGRPPRLPRPRPRPMPGPRP | 0.479 |
| RRIRARPPRLPRPRPRPTEDPRP | 0.269 |
| RRIRWRPPRLPRPRPRPEFDPRP | 0.198 |
| RRIRARPPRLPRPRPRPHKNPRP | 0.0543 |
| RRIRQRPPRLPRPRPRPNKHPRP | -0.622 |
| RRIRHRPPRLPRPRPRPKTNPRP | -0.376 |
| RRIRTRPPRLPRPRPRPQQDPRP | -0.18 |
| RRIRNRPPRLPRPRPRPQNSPRP | -0.38 |
| RRIRARPPRLPRPRPRPATPPRP | 0.894 |
| RRIRARPPRLPRPRPRPTQLPRP | 0.611 |
| RRIRVRPPRLPRPRPRPLPYPRP | -0.587 |
| RRIRWRPPRLPRPRPRPKIGPRP | -0.0273 |
| RRIRSRPPRLPRPRPRPGLNPRP | -0.207 |
| RRIRFRPPRLPRPRPRPCQPPRP | -0.134 |
| RRIRVRPPRLPRPRPRPRYIPRP | -0.458 |
| RRIRMRPPRLPRPRPRPPGLPRP | 0.702 |
| RRIRWRPPRLPRPRPRPIEYPRP | -0.224 |
| RRIRWRPPRLPRPRPRPYGCPRP | -0.189 |
| RRIRNRPPRLPRPRPRPVRKPRP | 0.128 |
| RRIRRRPPRLPRPRPRPSIVPRP | 0.26 |

| Sequence | shrunken log2 fold change |
| --- | --- |
| RRIRQRPPRLPRPRPRPEIPPRP | -0.0704 |
| RRIRWRPPRLPRPRPRPGGMPRP | 0.286 |
| RRIRVRPPRLPRPRPRPEGDPRP | 0.297 |
| RRIRCRPPRLPRPRPRPVYRPRP | -0.445 |
| RRIRDRPPRLPRPRPRPDASPRP | -0.012 |
| RRIRHRPPRLPRPRPRPNFRPRP | -0.144 |
| RRIRGRPPRLPRPRPRPLKIPRP | 0.365 |
| RRIRYRPPRLPRPRPRPKDNPRP | -0.75 |
| RRIRTRPPRLPRPRPRPYFQPRP | -0.587 |
| RRIRCRPPRLPRPRPRPIISPRP | -0.346 |
| RRIRERPPRLPRPRPRPTYCPRP | 0.0353 |
| RRIRFRPPRLPRPRPRPDTRPRP | -0.324 |
| RRIRTRPPRLPRPRPRPNWTPRP | 0.00155 |
| RRIRGRPPRLPRPRPRPNRNPRP | 0.00949 |
| RRIRSRPPRLPRPRPRPSNYPRP | -0.869 |
| RRIRKRPPRLPRPRPRPLDLPRP | -0.203 |
| RRIRSRPPRLPRPRPRPWFPPRP | -0.331 |
| RRIRERPPRLPRPRPRPHGMPRP | 0.0601 |
| RRIRKRPPRLPRPRPRPNYIPRP | -0.0745 |
| RRIRARPPRLPRPRPRPDPWPRP | 0.308 |
| RRIRNRPPRLPRPRPRPHFCPRP | -0.144 |
| RRIRARPPRLPRPRPRPMDYPRP | -0.407 |
| RRIRYRPPRLPRPRPRPEEMPRP | -0.0902 |
| RRIRERPPRLPRPRPRPILYPRP | -0.615 |
| RRIRRRPPRLPRPRPRPQTTPRP | 0.137 |

| Sequence | shrunken log2 fold change |
| --- | --- |
| RRIRDRPPRLPRPRPRPDAWPRP | 0.816 |
| RRIRHRPPRLPRPRPRPCDMPRP | -0.302 |
| RRIRNRPPRLPRPRPRPIGNPRP | 0.0106 |
| RRIRMRPPRLPRPRPRPQLHPRP | 0.546 |
| RRIRMRPPRLPRPRPRPQVIPRP | -0.0579 |
| RRIRRRPPRLPRPRPRPAAPPRP | 0.922 |
| RRIRKRPPRLPRPRPRPVRFPRP | 0.397 |
| RRIRWRPPRLPRPRPRPMSNPRP | 0.0465 |
| RRIRTRPPRLPRPRPRPGVDPRP | 0.0151 |
| RRIRCRPPRLPRPRPRPENRPRP | -0.168 |
| RRIRARPPRLPRPRPRPRRHPRP | 1.65 |
| RRIRCRPPRLPRPRPRPPDEPRP | 1.07 |
| RRIRQRPPRLPRPRPRPRFDPRP | -0.0137 |
| RRIRGRPPRLPRPRPRPEEDPRP | -0.0499 |
| RRIRTRPPRLPRPRPRPEQIPRP | 0.126 |
| RRIRNRPPRLPRPRPRPINCPRP | 0.00363 |
| RRIRFRPPRLPRPRPRPSFFPRP | -0.0473 |
| RRIRQRPPRLPRPRPRPLNWPRP | -0.133 |
| RRIRGRPPRLPRPRPRPIQRPRP | 0.0933 |
| RRIRYRPPRLPRPRPRPRFMPRP | -0.323 |
| RRIRPRPPRLPRPRPRPEGHPRP | -0.16 |
| RRIRVRPPRLPRPRPRPFTCPRP | -0.216 |
| RRIRWRPPRLPRPRPRPIARPRP | -0.00663 |
| RRIRQRPPRLPRPRPRPQHSPRP | -0.062 |
| RRIRLRPPRLPRPRPRPKWDPRP | 0.184 |

| Sequence | shrunken log2 fold change |
| --- | --- |
| RRIRYRPPRLPRPRPRPPRWPRP | 0.466 |
| RRIRGRPPRLPRPRPRPCCCPRP | 0.946 |
| RRIRGRPPRLPRPRPRPTPLPRP | 0.747 |
| RRIRMRPPRLPRPRPRPAIHPRP | 0.156 |
| RRIRARPPRLPRPRPRPALDPRP | 0.756 |
| RRIRNRPPRLPRPRPRPYRGPRP | -0.0134 |
| RRIRDRPPRLPRPRPRPLLYPRP | 0.116 |
| RRIRPRPPRLPRPRPRPYKEPRP | -0.382 |
| RRIRFRPPRLPRPRPRPAQGPRP | -0.00447 |
| RRIRTRPPRLPRPRPRPVMAPRP | -0.0918 |
| RRIRSRPPRLPRPRPRPYVEPRP | -0.442 |
| RRIRSRPPRLPRPRPRPAPVPRP | 0.269 |
| RRIRGRPPRLPRPRPRPPCNPRP | 0.489 |
| RRIRTRPPRLPRPRPRPVAHPRP | -0.0854 |
| RRIRNRPPRLPRPRPRPLKKPRP | -0.0418 |
| RRIRTRPPRLPRPRPRPKGDPRP | 0.00199 |
| RRIRTRPPRLPRPRPRPWSKPRP | -0.0826 |
| RRIRLRPPRLPRPRPRPAAWPRP | 0.32 |
| RRIRMRPPRLPRPRPRPGKVPRP | 0.101 |
| RRIRSRPPRLPRPRPRPPVHPRP | 0.0185 |
| RRIRCRPPRLPRPRPRPRTSPRP | 0.00938 |
| RRIRARPPRLPRPRPRPQNVPRP | -0.035 |
| RRIRFRPPRLPRPRPRPCRYPRP | -0.0124 |
| RRIRRRPPRLPRPRPRPTPGPRP | 1.11 |
| RRIRYRPPRLPRPRPRPWVLPRP | -0.223 |

| Sequence | shrunken log2 fold change |
| --- | --- |
| RRIRFRPPRLPRPRPRPKHAPRP | 0.416 |
| RRIRNRPPRLPRPRPRPVVMPRP | 0.00659 |
| RRIRNRPPRLPRPRPRPHAPPRP | 0.0879 |
| RRIRYRPPRLPRPRPRPVFVPRP | -0.458 |
| RRIRIRPPRLPRPRPRPLNWPRP | -0.291 |
| RRIRVRPPRLPRPRPRPVVPPRP | 0.132 |
| RRIRKRPPRLPRPRPRPLVLPRP | -0.0684 |
| RRIRDRPPRLPRPRPRPVCMPRP | 0.219 |
| RRIRYRPPRLPRPRPRPHKSPRP | -0.526 |
| RRIRLRPPRLPRPRPRPENNPRP | -0.406 |
| RRIRCRPPRLPRPRPRPKAWPRP | 0.132 |
| RRIRDRPPRLPRPRPRPGYTPRP | -0.127 |
| RRIRNRPPRLPRPRPRPSEHPRP | -0.159 |
| RRIRDRPPRLPRPRPRPNKHPRP | -0.425 |
| RRIRGRPPRLPRPRPRPAGDPRP | 1.11 |
| RRIRVRPPRLPRPRPRPPGRPRP | 0.593 |
| RRIRKRPPRLPRPRPRPSKRPRP | 0.0981 |
| RRIRWRPPRLPRPRPRPFNCPRP | -0.118 |
| RRIRSRPPRLPRPRPRPIFFPRP | 0.124 |
| RRIRFRPPRLPRPRPRPVEEPRP | -0.177 |
| RRIRARPPRLPRPRPRPWDMPRP | 0.187 |
| RRIRNRPPRLPRPRPRPNTMPRP | 0.402 |
| RRIRARPPRLPRPRPRPFIDPRP | -0.554 |
| RRIRIRPPRLPRPRPRPQRIPRP | -0.536 |
| RRIRWRPPRLPRPRPRPLFAPRP | 0.579 |
